# Experimental data from patent publication US20220249640A1.
# Molecular target: PD-1 (soluble, biotinylated, on sensors or coated on plates) (human) (UniProt Q15116)
# Test: method not stated at the list; Octet curves in FIG. 29
# Sequence of PD-1 (soluble, biotinylated, on sensors or coated on plates) (human) (Q15116 25-167 limits assumed): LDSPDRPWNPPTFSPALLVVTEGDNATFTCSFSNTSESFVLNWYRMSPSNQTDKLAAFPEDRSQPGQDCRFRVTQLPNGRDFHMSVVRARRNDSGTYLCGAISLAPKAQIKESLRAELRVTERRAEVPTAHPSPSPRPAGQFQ
binder,measurement,value
"PD1#3 scFv-Fc (Fc fusion, part only; not given: Fc, linker, domain order, not shown: another chain or arm of the molecule; a dimerising Fc or GST; small tags and cut ends) VH: QVQLVQSGAEVKKPGSSVKVSCKTSGYTFNRFGLTWVRQAPGQGLEWMGWTNPYNGNTRYAQKFQGRVTMTTDTSTSTAYMELRSLRSDDTAMYFCARVVAVNGMDVWGQGTTVTVSS VL: NFMLTQPHSVSESPGKTVTISCTRNSGSIAAYYVQWYQQRPGSSPTTVIYEDNQRPSGVPDRFSGSIDSSSNSASLTISGLKTEDEADYYCQSYDSSNLWVFGGGTKLTVL",Kd,0.1 nM
